In patent US20220153853A1 (JIANGSU HENGRUI MEDICINE, published 2022):
Changes are numbered by the printed parent chain. Like-named read-outs stand apart in the source and are kept apart here.

B1: ch1817 (antibody, human IgG4 S228P, kappa, F234A L235A, V domains shown)
VH: EVQLVESGGDLVQPGRSMKLSCAASGFTFSNYYMAWVRQAPTKGLEWVASISTGGVNTYYRDSVKGRFTISRDNAKNNLYLQMDSLRSEETATYYCARHTTADYFYGIYFALDAWGQGTSVTVSS
VL: QFTLTQPKSVSGSLRSTITIPCERSSGDIGDSYVNWYQQHLGRPPLNVIYADVQRPSEVSDRFSGSIDSSSNSASLTITNLQMDDEADYFCQSYDTNIDIIFGGGTKLTVLR
notes: IgG4-AA / kappa chimeric antibody
B2: ch1822 (antibody, human IgG4 S228P, kappa, F234A L235A, V domains shown)
VH: B1 VH with Q3R, L11F, M18V, A49G, K76E, N77S, N78T, A102P, F105H, L112M
VL: B1 VL with F2V, D31E, L46I, V53D, M83V, T96S, N97S, I101F
notes: as for B1
B3: hu1810-9 (antibody, human IgG4 S228P, kappa, F234A L235A, V domains shown)
VH: QVQLVQSGAEVKKPGSSVKVSCKASGGTFSNYAISWVRQAPGQGLEWMGEIYPTSGNTYYNEKFKGRVTITADKSTSTAYMELSSLRSEDTAVYYCARGVITTVVSTDYFDYWGQGTLVTVSS
VL: DIQMTQSPSSLSASVGDRVTITCRASLDISNYLNWYQLKPGKAVKLLIYYTSTLHSGVSSRFSGSGSGTEYTLTISSLQPEDFATYYCQQGNMVPYTFGGGTKVEIKR
B4: hu1810-11 (antibody, human IgG4 S228P, kappa, F234A L235A, V domains shown)
VH: B3 VH with M48I, V68A, I70L, K74R, A79M, R98S
VL: B3 VL
B5: hu1810-10 (antibody, human IgG4 S228P, kappa, F234A L235A, V domains shown)
VH: B3 VH with K74R, A79M, R98S
VL: B3 VL
B6: hu1803-1 (antibody, human IgG4 S228P, kappa, F234A L235A, V domains shown)
VH: EVQLVQSGAEVKKPGASVKVSCKASGYTFTDYWIEWVRQAPGQGLEWMGEILPGSTYTNYNEKFKGRVTMTRDTSTSTVYMELSSLRSEDTAVYYCARGLSTLMAVDYFDYWGQGTTVTVSS
VL: DIQMTQSPSSLSASVGDRVTITCRASQDISNYLNWYQQKPGKAPKLLIYYSSTLHSGVPSRFSGSGSGTDFTLTISSLQPEDFATYYCQQTNIFPWTFGGGTKVEIKR
B7: hu1810-4 (antibody, human IgG4 S228P, kappa, F234A L235A, V domains shown)
VH: B3 VH with R38K, M48I, R67K, V68A, I70L, K74R, A79M, R98S
VL: B3 VL with L38Q, V44P, S59P, E70D, Y71F
B8: hu1803-2 (antibody, human IgG4 S228P, kappa, F234A L235A, V domains shown)
VH: B6 VH with M70F, R72A, V79A
VL: B6 VL
B9: hu1810-2 (antibody, human IgG4 S228P, kappa, F234A L235A, V domains shown)
VH: B3 VH with K74R, A79M, R98S
VL: B3 VL with L38Q, V44P, S59P, E70D, Y71F
B10: hu1803-3 (antibody, human IgG4 S228P, kappa, F234A L235A, V domains shown)
VH: B6 VH with M48I, V68A, M70F, R72A, V79A, A97S
VL: B6 VL
B11: hu1803-7 (antibody, human IgG4 S228P, kappa, F234A L235A, V domains shown)
VH: B6 VH with M48I, V68A, M70F, R72A, V79A, A97S
VL: B6 VL with K42G, P44V, F71Y, Y87F
B12: hu1810-7 (antibody, human IgG4 S228P, kappa, F234A L235A, V domains shown)
VH: B3 VH with M48I, V68A, I70L, K74R, A79M, R98S
VL: B3 VL with L38Q, E70D
B13: hu1810-6 (antibody, human IgG4 S228P, kappa, F234A L235A, V domains shown)
VH: B3 VH with K74R, A79M, R98S
VL: B3 VL with L38Q, E70D
B14: hu1803-8 (antibody, human IgG4 S228P, kappa, F234A L235A, V domains shown)
VH: B6 VH with R38K, M48I, V68A, M70F, R72A, T74P, V79A, A97S
VL: B6 VL with K42G, P44V, F71Y, Y87F
B15: hu1803-12 (antibody, human IgG4 S228P, kappa, F234A L235A, V domains shown)
VH: B6 VH with R38K, M48I, V68A, M70F, R72A, T74P, V79A, A97S
VL: B6 VL with P44V, F71Y
B16: hu1810-1 (antibody, human IgG4 S228P, kappa, F234A L235A, V domains shown)
VH: B3 VH
VL: B3 VL with L38Q, V44P, S59P, E70D, Y71F
B17: hu1803-6 (antibody, human IgG4 S228P, kappa, F234A L235A, V domains shown)
VH: B6 VH with M70F, R72A, V79A
VL: B6 VL with K42G, P44V, F71Y, Y87F
B18: hu1803-11 (antibody, human IgG4 S228P, kappa, F234A L235A, V domains shown)
VH: B6 VH with M48I, V68A, M70F, R72A, V79A, A97S
VL: B6 VL with P44V, F71Y
B19: hu1803-10 (antibody, human IgG4 S228P, kappa, F234A L235A, V domains shown)
VH: B6 VH with M70F, R72A, V79A
VL: B6 VL with P44V, F71Y
B20: hu1810-3 (antibody, human IgG4 S228P, kappa, F234A L235A, V domains shown)
VH: B3 VH with M48I, V68A, I70L, K74R, A79M, R98S
VL: B3 VL with L38Q, V44P, S59P, E70D, Y71F
B21: hu1803-4 (antibody, human IgG4 S228P, kappa, F234A L235A, V domains shown)
VH: B6 VH with R38K, M48I, V68A, M70F, R72A, T74P, V79A, A97S
VL: B6 VL
B22: hu1803-5 (antibody, human IgG4 S228P, kappa, F234A L235A, V domains shown)
VH: B6 VH
VL: B6 VL with K42G, P44V, F71Y, Y87F
B23: hu1810-8 (antibody, human IgG4 S228P, kappa, F234A L235A, V domains shown)
VH: B3 VH with R38K, M48I, R67K, V68A, I70L, K74R, A79M, R98S
VL: B3 VL with L38Q, E70D
B24: hu1810-5 (antibody, human IgG4 S228P, kappa, F234A L235A, V domains shown)
VH: B3 VH
VL: B3 VL with L38Q, E70D
B25: ch1810 (antibody, human IgG4 S228P, kappa, F234A L235A, V domains shown)
VH: QVQLQQSGTELARPGTSVTLSCKASGYTFTNYAISWVKQRTGQGLEWIGEIYPTSGNTYYNEKFKGKATLTADRSSKTMYMELRSLTSVDSAVYFCASGVITTVVSTDYFDYWGQGSPLTVSS
VL: DIQMTQIPSSLSVSLGDRVTISCRASLDISNYLNWYQLKPDGTVKLLIYYTSTLHSGVSSRFSGSGSGTEYSLTISNLEQEDIATYFCQQGNMVPYTFGGGTKLEIKR
B26: ch1803 (antibody, human IgG4 S228P, kappa, F234A L235A, V domains shown)
VH: QFQLHQSGAELVKPGASVKLSCKATGYTFTDYWIEWVKQRPGHGLEWIGEILPGSTYTNYNEKFKGRATFTAEPSSSSAYMQLSGLTTEDSAIYYCSRGLSTLMAVDYFDYWGQGTTLTVSS
VL: DIQMTQTTSSLSASLGDRVTINCRASQDISNYLNWYQQKPDGTVKLLIYYSSTLHSGVPSRFSGSGSGTDYSLTISHLEQEDIATYFCQQTNIFPWTFGGGTKLEIRT
notes: as for B1

How the values were obtained:
Mouse GCGR [1] = biological target: T1, Mouse GCGR (mouse, UniProt Q61606 27-485); experiment: cell-based or functional assay
T1 sequence (Q61606 27-485): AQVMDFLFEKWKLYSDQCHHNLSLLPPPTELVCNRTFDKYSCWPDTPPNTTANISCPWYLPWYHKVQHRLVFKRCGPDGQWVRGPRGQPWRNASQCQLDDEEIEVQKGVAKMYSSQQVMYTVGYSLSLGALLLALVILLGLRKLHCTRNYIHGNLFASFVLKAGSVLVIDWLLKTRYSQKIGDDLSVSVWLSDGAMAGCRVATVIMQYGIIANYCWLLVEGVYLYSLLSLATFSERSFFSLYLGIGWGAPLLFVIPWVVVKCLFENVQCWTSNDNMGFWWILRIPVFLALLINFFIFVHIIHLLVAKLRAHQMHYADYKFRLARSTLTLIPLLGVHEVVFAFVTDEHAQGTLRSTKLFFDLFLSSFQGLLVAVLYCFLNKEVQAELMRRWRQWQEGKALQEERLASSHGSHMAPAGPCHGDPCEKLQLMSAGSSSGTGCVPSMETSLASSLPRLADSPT

[2] = biological target: T2, human GCGR (full-length glucagon receptor of 477 amino acids) (human, UniProt P47871 26-477); experiment: cell-based or functional assay
T2 sequence (P47871 26-477 limits assumed): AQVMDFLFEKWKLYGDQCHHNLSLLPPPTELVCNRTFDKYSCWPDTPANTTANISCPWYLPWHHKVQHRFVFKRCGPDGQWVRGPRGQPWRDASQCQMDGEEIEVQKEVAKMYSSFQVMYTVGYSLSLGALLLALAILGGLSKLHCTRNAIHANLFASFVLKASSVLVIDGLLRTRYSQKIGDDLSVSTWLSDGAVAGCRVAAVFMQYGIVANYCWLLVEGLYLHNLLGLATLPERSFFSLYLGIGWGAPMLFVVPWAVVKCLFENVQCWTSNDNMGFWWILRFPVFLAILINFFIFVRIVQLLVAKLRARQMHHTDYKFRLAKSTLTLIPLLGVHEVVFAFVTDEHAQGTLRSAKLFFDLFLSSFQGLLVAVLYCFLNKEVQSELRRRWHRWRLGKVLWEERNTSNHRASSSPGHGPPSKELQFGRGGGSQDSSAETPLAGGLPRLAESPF

Mouse GCGR [3] = biological target: T1, Mouse GCGR; experiment: cell ELISA on fixed CHO cells overexpressing GCGR
Procedure: (§1) The expression levels of GCGR were detected after two weeks of pressure screening, After the GCGR-overexpressing cells were fixed to the bottom of 96-well plate, the antibodies were added and the signal strength was used to determine the binding activity of the antibody to GCGR overexpressing CHO cells. The binding abilities of the antibody to the three species of GCGRs were detected with the same binding assay. As an example, the binding of the GCGR antibodies to human GCGR was detected by an assay specifically described as follows:
(§2) The cells were seeded in a 96-well plate at a density of 0.9-1.0×10⁶/ml, 100 μl/well and cultured overnight. The supernatant was discarded, the plate was washed three times with PBS, 100 μl/well of cell immune fixed solution (Beyotime, Cat No. P0098) was added and fixed for an hour at room temperature, and washed four times with PBS. The liquid was discarded, 200 μl/well blocking solution (5% skim milk (BD skim milk, Cat Wo. 232100) diluted with PBS) was added, and incubated in an incubator at 37° C. for 3 hours for blocking. After the blocking was finished, the blocking solution was discarded, the plate was washed 3 times with PBST buffer (PBS comprising 0.05% tweenW-20, pH7.4), 50 μl/well of various concentrations of each of the test antibodies (antibodies purified from hybridoma, chimeric antibodies or humanized antibodies) diluted with sample dilution solution were added, and incubated in an incubator at 37° C. for 2 hours. After the incubation was finished, the plate was washed 3 times with PBST, 50 μl/well of HRP-labeled goat anti-mouse secondary antibody (JacksoW ImmuWo Research, Cat No. 115-035-003) or goat anti-human secondary antibody (JacksoW ImmuWo Research, Cat Wo. 109-035-003) diluted with sample dilution solution was added, and incubated at 37° C. for 1 hour. The plate was washed 3 times with PBST, 50 μl/well of TMB chromogenic substrate (KPL, Cat Wo. 52-00-03) was added, incubated at room temperature for 10 min, and 50 μl/well of 1M H₂SO4 was added to stop the reaction. The absorbance value was read by a microplate reader (Thermo scientific Multiskan MK3) at a wavelength of 450 nm, and the data was analyzed with GraphPad Prism 5. The binding of GCGR chimeric antibodies to GCGR-overepressing CHO cells was calculated as EC50 value.

[4] = biological target: T2, human GCGR (full-length glucagon …); experiment: cell ELISA on fixed CHO cells overexpressing GCGR
Procedure: as §1, §2

Cynomolgus monkey GCGR = biological target: T3, Cynomolgus monkey GCGR (cynomolgus monkey); experiment: cell ELISA on fixed CHO cells overexpressing GCGR
T3 construct: whole, on cells; also called cynomolgus GCGR
Procedure: as §1, §2

[5] = biological target: T2, human GCGR (full-length glucagon …); experiment: cell-based or functional assay; remark: listed apart in the source

Row | Binder | IC50 [5] | Imax [5] | further results
1 | B1 |  |  | IC50 (Mouse GCGR [1]): 12.8 nM; Imax (%) (Mouse GCGR [1]): 96%; IC50 [2]: 59.8 nM; Imax [2]: 83%; EC50 (Mouse GCGR [3]): 0.164 nM; EC50 [4]: 0.193 nM; EC50 (Cynomolgus monkey GCGR): 0.297 nM
2 | B2 |  |  | IC50 (Mouse GCGR [1]): 16 nM; Imax (%) (Mouse GCGR [1]): 87%; IC50 [2]: 62.5 nM; Imax [2]: 59%; EC50 (Mouse GCGR [3]): 0.568 nM; EC50 [4]: 0.383 nM; EC50 (Cynomolgus monkey GCGR): 0.428 nM
3 | B3 | 125 nM | 90.4% | 
4 | B4 | 91.3 nM | 99.6% | 
5 | B5 | 95.6 nM | 97.4% | 
6 | B6 | 191 nM | 91.8% | 
7 | B7 | 138 nM | 99.1% | 
8 | B8 | 137 nM | 98.5% | 
9 | B9 | 106 nM | 100% | 
10 | B10 | 110 nM | 96.7% | 
11 | B11 | 73 nM | 100% | 
12 | B12 | 119 nM | 100% | 
13 | B13 | 157 nM | 100% | 
14 | B14 | 85.9 nM | 100% | 
15 | B15 | 86.9 nM | 100% | 
16 | B16 | 189 nM | 83.2% | 
17 | B17 | 77.5 nM | 100% | 
18 | B18 | 88.7 nM | 100% | 
19 | B19 | 76.7 nM | 100% | 
20 | B20 | 192 nM | 95.4% | 
21 | B21 | 140 nM | 100% | 
22 | B22 | 79 nM | 100% | 
23 | B23 | 133 nM | 100% | 
24 | B24 | 216 nM | 86.4% | 
25 | B25 |  |  | IC50 [2]: 72.5 nM; Imax [2]: 100%; EC50 (Mouse GCGR [3]): 0.442 nM; EC50 [4]: 0.117 nM; EC50 (Cynomolgus monkey GCGR): 0.248 nM
26 | B26 |  |  | IC50 (Mouse GCGR [1]): 24.7 nM; Imax (%) (Mouse GCGR [1]): 93%; IC50 [2]: 79.3 nM; Imax [2]: 100%; EC50 (Mouse GCGR [3]): 0.718 nM; EC50 [4]: 0.117 nM; EC50 (Cynomolgus monkey GCGR): 0.213 nM
